Experimental data published in WO2021032966A1 (dated 2021).

How the values were obtained:
[1] = biological target: T1, human Ab42 species in protein extracts of GMC101 C. elegans worms (human); assay: indirect ELISA on C. elegans protein extracts, N2 worms as reference
T1 construct: Target present in crude worm protein extracts coated on ELISA wells; also called NIAD-4 negative, toxic Ab42 species; Ab42 oligomers formed in vivo

[2] = biological target: T2, Zn2+-stabilised Ab40 oligomers (UniProt P05067 672-711); assay: ITC, DesAb-O injected into Ab40 oligomers, 25 C
T2 construct: domain: Ab1-40; Oligomers made by incubating Ab40 with ZnCl2 for 20 hours at 20 C

[3] = biological target: T2, Zn2+-stabilised Ab40 oligomers; assay: ITC, fit of double subtracted integrated peaks
[4] = biological target: T3, Ab42 species in hippocampus protein extracts of J20 mice (PDGF-APPSw,Ind) (human); assay: indirect ELISA on hippocampus protein extracts of J20 mice, normalised to wild-type mice
T3 construct: Target present in crude hippocampus extracts coated on ELISA wells; 6E10 detects total Ab in the same extracts; also called Ab42 oligomers formed in vivo in a mouse model of AD
T3 sequence (peptide, as listed by the source): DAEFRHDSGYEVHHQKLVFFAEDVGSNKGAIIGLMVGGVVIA

T2 sequence (P05067 671-711 limits assumed): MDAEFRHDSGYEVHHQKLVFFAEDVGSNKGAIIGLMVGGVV
T1 sequence (peptide, as listed by the source): as the sequence (peptide, as listed by the source) above

B1: DesAb-O (VHH)
VHH: EVQLVESGGGLVQPGGSLRLSCAASGFNIKDTYIGWVRRAPGKGEEWVASIYPTNGYTRYADSVKGRFTISADTSKNTAYLQMNSLRAEDTAVYYCAAGSESAFGRAEEEAAAWGQGTLVTVSS
notes: Rationally designed single-domain antibody (VH domain), expressed in E. coli, purified by Ni2+ chromatography and detected with an anti-6X His tag antibody; also called DesAb-0; Des-Ab-0
binding result [1]: binds
Kd [2]: ~500 nM
DH (ITC fit) [3]: -12.7 kcal/mol
Kd [3]: 440 nM
binding result [4]: binds
